A short description of the data set: In vitro release rate from implantable osmotic delivery device (RP-HPLC). Format: physicochemical. Conditions: 37° C., out to 100 days.

Protocol: For each study, a drug reservoir of an implantable osmotic delivery device was filled with 160 μl of one of the suspension formulations described in Example 2. The membrane ends of the osmotic pumps were placed into stoppered glass vials filled with 3 ml phosphate buffer solution (PBS), and the diffusion moderator ends of the osmotic pumps were placed into glass vials filled with 2.5 to 3 ml release rate medium (citrate buffer solution at pH 6.0 with 0.14 M NaCl and 0.2% sodium azide).
Each system was placed into a capped test tube, with the diffusion moderator side down, and partially immersed in a 37° C. water bath. At specified time points, the glass vials at the diffusion moderator ends were replaced with new glass vials filled with 2.5 to 3 ml release rate medium (citrate buffer solution at pH 6.0 with 0.14 M NaCl and 0.2% sodium azide). Samples were collected from the diffusion moderator ends of the osmotic pumps and analyzed using RP-HPLC.

As for omega interferon, the approximate release rate was roughly 50 µg/day.

These data come from patent US20170119854A1, “HIGHLY CONCENTRATED DRUG PARTICLES, FORMULATIONS, SUSPENSIONS AND USES THEREOF” (Intarcia Therapeutics, Inc., priority 2008, published 2017).
